The target of this data set is Gag (GagΔp6) (HIV-1 BH10, UniProt P03347 1-447). Description: fluorescence anisotropy.

Here are results for 2 molecules from publication PMC2963451.

For orientation: Kd means the equilibrium constant for the complex coming apart. Read a low Kd as a tighter complex.

The molecule AGCTGCTTTTTGCCTGTACT (ssDNA) [JL936] registered a Kd of 9 nM.
On to AGCUGCUUUUUGCCUGUACU (ssRNA) [JL943], for which the Kd was found to be 8 nM.
